One assay deals with HLA-B*44:02. As to the kind of experiment: IEDB peptide-MHC binding, purified MHC/competitive/radioactivity; filed as Kd, often an IC50 or EC50 that approximates it; ≥ and ≤ were set here for values at or beyond the usual limits of such assays.
In another assay the target is HLA-B*44:03. The assay is described as above.
The target of the next assay is HLA-B*18:01. Described as above.
Another assay addresses HLA-B*45:01. The description is as above.
For the next assay, the target named is HLA-B*40:01. The description is as above.
The next assay concerns the target HLA-B*40:02. Described as above.
The target of another assay is HLA-A*02:06. Described as above.
Another assay has as its target HLA-A*68:02. Described as above.
The target in a further assay is HLA-A*02:03. The description is as above.
Assay [1] addresses HLA-A*02:01. The description is as above.
The next assay has as its target HLA-A*02:02. The assay is described as above.
A further assay deals with HLA-A*69:01. As to the kind of experiment: IEDB peptide-MHC binding, purified MHC/direct/fluorescence; filed as Kd, often an IC50 or EC50 that approximates it; ≥ and ≤ were set here for values at or beyond the usual limits of such assays. The following applies: source organism: Mammarenavirus lassaense.
Assay [2] deals with HLA-A*02:01. Described as above. The following applies: source organism: Mammarenavirus lassaense.
[3] abbreviates: source organism: Lymphocytic choriomeningitis virus (strain Armstrong).
Where [4] appears, read: source organism: Mammarenavirus guanaritoense.
[5] abbreviates: source organism: Hepatitis C virus (isolate BK).
The mark [6] stands for this setting: source organism: SARS coronavirus Tor2.
Setting [7] is: source organism: Mammarenavirus machupoense.
[8] abbreviates: source organism: Trypanosoma cruzi.
Setting [9] is: source organism: Lassa virus Josiah.

On to ADNMITEML, for which the Kd with HLA-B*44:02 (setting [3]) was 17700 nM; with HLA-B*44:03 (setting [3]) it was 17800 nM; with HLA-B*18:01 (setting [3]), at least 77500 nM; with HLA-B*45:01 (setting [3]) it was at least 77700 nM; with HLA-B*40:01 (setting [3]) it was 19500 nM; with HLA-B*40:02 (setting [3]) it was 1410 nM.

Regarding AEFTFQLNL, the Kd with HLA-B*44:02 (setting [4]) was 59.9 nM; with HLA-B*44:03 (setting [4]), 50.8 nM; with HLA-B*18:01 (setting [4]), 5930 nM; with HLA-B*45:01 (setting [4]) it was 210 nM; with HLA-B*40:01 (setting [4]), 66.1 nM; with HLA-B*40:02 (setting [4]), 0.946 nM.

In the case of CVNGVCWTV, the Kd with HLA-A*02:06 (setting [5]) is 2670 nM; with HLA-A*68:02 (setting [5]), 948 nM; with HLA-A*02:03 (setting [5]), 2080 nM; with HLA-A*02:01 [1] (setting [5]), 1020 nM; in the assay with HLA-A*02:02 (setting [5]), 1040 nM.

For the sequence DEWSVATFYL, the Kd in the assay with HLA-B*44:02 (setting [6]) was found to be 939 nM; in the assay with HLA-B*44:03 (setting [6]), 356 nM; in the assay with HLA-B*18:01 (setting [6]), 77.1 nM; in the assay with HLA-B*45:01 (setting [6]) it was 1010 nM; with HLA-B*40:01 (setting [6]), 1490 nM; with HLA-B*40:02 (setting [6]) it was 119 nM.

On to DKLVDPINY, for which the dissociation constant Kd in the assay with HLA-B*44:02 (source organism: Variola virus) was at least 77900 nM; with HLA-B*44:03 (source organism: Variola virus), at least 78100 nM; with HLA-B*18:01 (source organism: Variola virus) it was at least 77500 nM; with HLA-B*45:01 (source organism: Variola virus), at least 77700 nM; in the assay with HLA-B*40:01 (source organism: Variola virus), 15500 nM; in the assay with HLA-B*40:02 (source organism: Variola virus), at least 77200 nM.

For DLKDLEAHI, the Kd with HLA-A*02:06 (source organism: Homo sapiens) is at least 109000 nM; with HLA-A*68:02 (source organism: Homo sapiens), 17600 nM; with HLA-A*02:01 [1] (source organism: Homo sapiens), at least 83400 nM.

Consider EEAARCMRSL, for which the Kd in the assay with HLA-B*44:02 (setting [6]) is 164 nM; in the assay with HLA-B*44:03 (setting [6]), 406 nM; with HLA-B*18:01 (setting [6]), 6890 nM; in the assay with HLA-B*45:01 (setting [6]) it was 85 nM; in the assay with HLA-B*40:01 (setting [6]), 802 nM; with HLA-B*40:02 (setting [6]), 184 nM.

With EEILGTVSW, the dissociation constant (Kd) in the assay with HLA-B*44:02 (setting [6]) was 3.19 nM; in the assay with HLA-B*44:03 (setting [6]), 2.58 nM; with HLA-B*18:01 (setting [6]), 78.3 nM; with HLA-B*45:01 (setting [6]), 1550 nM; with HLA-B*40:01 (setting [6]), 3080 nM; with HLA-B*40:02 (setting [6]) it was 378 nM.

In the case of EEVLDVCPLG, the dissociation constant Kd in the assay with HLA-B*44:02 (setting [7]) was at least 70200 nM; with HLA-B*44:03 (setting [7]), at least 51100 nM; with HLA-B*18:01 (setting [7]), 4840 nM; in the assay with HLA-B*45:01 (setting [7]), 4440 nM; in the assay with HLA-B*40:01 (setting [7]) it was 14200 nM; with HLA-B*40:02 (setting [7]), 9750 nM.

Regarding ELLRPTTLV, the Kd amounted to 2080 nM in the assay with HLA-A*02:06 (setting [8]), 87 nM in the assay with HLA-A*68:02 (setting [8]), 1390 nM in the assay with HLA-A*02:03 (setting [8]) and 4030 nM with HLA-A*02:02 (setting [8]).

Regarding FANYGFTLA, the dissociation constant Kd came out at 0.447 nM with HLA-A*02:06 (setting [8]); 1640 nM with HLA-A*68:02 (setting [8]); 46.2 nM with HLA-A*02:03 (setting [8]); 1500 nM with HLA-A*02:01 [1] (setting [8]); 1980 nM with HLA-A*02:02 (setting [8]).

With FVFSTSFYL, the Kd is 13.7 nM in the assay with HLA-A*02:06 (setting [9]); 0.508 nM in the assay with HLA-A*68:02 (setting [9]); 51 nM with HLA-A*02:03 (setting [9]); 1.5 nM in the assay with HLA-A*02:02 (setting [9]); 1.2 nM with HLA-A*69:01; at most 1 nM in the assay with HLA-A*02:01 [2].

With GVSWMIRILI, the dissociation constant (Kd) with HLA-A*68:02 (source organism: Dengue virus 4 Dominica/814669/1981) was 197 nM.

For HEFVDEFYA, the Kd with HLA-B*44:02 (setting [6]) stood at 18600 nM; in the assay with HLA-B*44:03 (setting [6]), 5580 nM; with HLA-B*18:01 (setting [6]), 3010 nM; with HLA-B*45:01 (setting [6]), 157 nM; with HLA-B*40:01 (setting [6]), 1190 nM; with HLA-B*40:02 (setting [6]), 55 nM.

As for IDYRHYSASF, the Kd in the assay with HLA-B*44:02 (setting [6]) is 5840 nM; with HLA-B*44:03 (setting [6]), at least 36500 nM; with HLA-B*18:01 (setting [6]), at least 31500 nM; in the assay with HLA-B*45:01 (setting [6]) it was 978 nM; with HLA-B*40:01 (setting [6]), at least 44600 nM; with HLA-B*40:02 (setting [6]) it was 2670 nM.

For orientation: Kd means the constant that tells how readily two partners part at equilibrium.
